According to patent US20240207432A1 (BIOSION, published 2024):
Numbering of substitutions follows the chain as printed.

T1: full length human TROP2 on 293F-TROP2 cells (human, UniProt P09758 27-323)
T1 construct: also called 293F-TROP2 cells (clone ID #3A8); cell surface TROP2
T1 sequence: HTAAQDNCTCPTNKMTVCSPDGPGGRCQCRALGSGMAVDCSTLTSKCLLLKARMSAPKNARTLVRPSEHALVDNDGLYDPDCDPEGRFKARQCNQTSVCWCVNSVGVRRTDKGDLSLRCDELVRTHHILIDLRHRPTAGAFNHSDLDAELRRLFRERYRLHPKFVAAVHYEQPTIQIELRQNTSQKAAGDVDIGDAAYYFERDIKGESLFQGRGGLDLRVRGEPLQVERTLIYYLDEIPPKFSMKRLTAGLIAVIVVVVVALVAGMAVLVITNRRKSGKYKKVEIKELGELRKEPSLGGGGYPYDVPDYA

T2: human TROP2-his protein (human, UniProt P09758 27-274)
T2 construct: Biotin-labelled in the ELISAs, unlabelled analyte in Biacore; also called biotin-labeled human TROP2-his protein; biotin human Trop2-his
T2 sequence: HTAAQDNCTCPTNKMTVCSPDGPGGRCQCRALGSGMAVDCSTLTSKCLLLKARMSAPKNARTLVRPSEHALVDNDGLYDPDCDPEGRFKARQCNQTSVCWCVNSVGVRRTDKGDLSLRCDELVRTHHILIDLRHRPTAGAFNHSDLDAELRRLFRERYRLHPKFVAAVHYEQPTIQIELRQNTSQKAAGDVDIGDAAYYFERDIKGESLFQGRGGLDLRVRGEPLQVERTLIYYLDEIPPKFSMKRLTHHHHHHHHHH

T3: cynomolgus TROP2-his protein (cynomolgus monkey, UniProt P09758 27-272 (human entry), limits assumed)
T3 construct: no cleavage site is stated; also called Cynomolgus monkey TROP2-his protein; monkey TROP2
T3 chain: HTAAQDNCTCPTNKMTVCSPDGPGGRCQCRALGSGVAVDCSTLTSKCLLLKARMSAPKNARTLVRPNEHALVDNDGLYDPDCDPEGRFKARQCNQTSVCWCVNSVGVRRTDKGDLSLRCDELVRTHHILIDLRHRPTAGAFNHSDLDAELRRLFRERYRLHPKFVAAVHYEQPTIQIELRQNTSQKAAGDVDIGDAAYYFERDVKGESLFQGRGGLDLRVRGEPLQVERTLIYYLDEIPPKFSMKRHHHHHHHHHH

B1: huA1E4F7D4-V16 (antibody, human IgG1, kappa, V domains shown)
VH: QVQLVQSGAEVKKPGASVKVSCKASGYSFTTHWIHWVRQAPGQGLEWIGTIFPSNAYAVYNQKFRDRATMTADTSISTAYIELSRLRSDDTAVYYCARASYFDYWGQGTTVTVSS
VL: EIVLTQSPATLSLSPGERATLSCRASQNIGTSIHWFQQKPGGAPRLLIKYASESISGIPSRFSGSGSGTDFTLTISSLEPEDFAVYYCQHSHSWPFTFGQGTKLEIKR
notes: Positions of the X residues are given in the claims; also called humanized antibody huA1E4F7D4-V16
B2: benchmark (in house prepared sacituzumab) (antibody, human IgG1, kappa, V domains shown)
VH: SVQLQQSGSELKKPGASVKVSCKASGYTFTNYGMNWVKQAPGQGLKWMGWINTYTGEPTYTDDFKGRFAFSLDTSVSTAYLQISSLKADDTAVYFCARGGFGSSYWYFDVWGQGSLVTVSS
VL: DIQLTQSPSSLSASVGDRVSITCKASQDVSIAVAWYQQKPGKAPKLLIYSASYRYTGVPDRFSGSGSGTDFTLTISSLQPEDFAVYYCQQHYITPLTFGAGTKVEIKR
notes: also called BM; BM1
B3: mouse antibody A1E4F7D4 (antibody, V domains shown)
VH: QVQLQQSGAELAKPGTSVKMSCEASGYSFTTHWIHWMKQRPGQGLEWIGTIFPSNAYAVYNQKFRDRAIMTADRSSTTAYIQLTGLTSEDSAVYYCARASYFDYWGQGTTLTVSS
VL: DILLTQSPATLSVSPGERVTFSCRASQNIGTSIHWFQQRTTGSPRLLIKYASESISGIPSRFSGSGSGTDFTLHINSVESEDIAHYYCQHSHSWPFTFGSGTKLEIQ
notes: Mouse monoclonal IgG purified from hybridoma supernatant; also called Mouse A1E4F7D4
B4: mouse antibody C1B3B12D2 (antibody, V domains shown)
VH: QVQLQQSGPELVRPGTSVKMSCKAAGYTFTKFWIGWVKQRPGHGLEWIGNIYPGGAYINYNENFKGKATLTADTFSSTAYMQLNSLTSADSAIYYCAREGSSGYWGQGTTLTVSS
VL: DIVMTQSPSSLTVTAGEKVTLSCKCSQSLLNSGTQENYLTWYQQKPGQPPKMLIYWASIREPGVPDRFTGSGSGTDFTLTINNVQAEDLAVYYCQHDYSYPFTFGSGTKLEIK
notes: Mouse monoclonal IgG purified from hybridoma supernatant
B5: mouse antibody A1E11A12D1 (antibody, V domains shown)
VH: QVQLQQSGAELARPGASVKLSCMASGYTFTTYGISWVRQRTGQGLEWIGQIYPGSDYSYCDEDFKGKATLTADKSSSTAYMQLSSLTSEDSAVYFCARASYFDYWGQGTTLTVSS
VL: DILLTQSPAILSVSPGERVSFSCRASQTIGTAIHWYQQRANGSPRLLIKYASESISGIPSRFSGSGSGTDFALSINTVESEDFAYYYCQQSNNWPFTFGGGTKLEIR
notes: as for B4
B6: mouse antibody A1H3C5H8E12 (antibody, V domains shown)
VH: QVQLQQSGAELVRPGTSVKMSCKAAGYTFTNYWIDWVKQRPGHGLEWIGNIFPGGFYTNYNEKFKGKATLTADTSSSTAYMQLSSLTSEDSAIYYCARGGVFDYWGQGTTLTVSS
VL: B5 VL with T28S, A32S, A40T, A72T, T77S, F83I, Y85D, N93S, F96Y, R107K
notes: as for B4

Biological target: T1, full length human TROP2 on 293F-TROP2 …
Assay: FACS on 293F-TROP2 cells, MFI
Protocol: (§1) The 293F-TROP2 cells were harvested from cell culture flasks, washed twice and re-suspended in phosphate buffered saline (PBS) containing 2% v/v Fetal Bovine Serum (FACS buffer). […] Following an incubation of 40 minutes at 4° C. in dark, cells were washed twice and re-suspended in FACS buffer. Fluorescence was measured using a Becton Dickinson FACS Canto II-HTS equipment, and the MFI (mean fluorescence intensity) was plotted against antibody concentration. Data was analyzed using Graphpad Prism software and EC₅₀ values were reported.

Binder | EC50 [nM]
B1 | 0.596
B2 | 1.32
B3 | 1.48

Biological target: T2, human TROP2-his protein
Assay: capture ELISA, antibody captured on anti-mouse IgG Fc coat, biotin human TROP2-his in solution, OD(450-630)
Protocol: Plates were washed once with wash buffer (PBS+0.05% v/v Tween-20, PBST) and then blocked with 200 μl/well blocking buffer (5% w/v non-fatty milk in PBST) for 2 hours at 37° C. […] Plates containing captured anti-TROP2 antibodies were incubated with biotin-labeled human TROP2-his protein (prepared in house, SEQ ID NO: 67, 56.7 ng/mL in 2.5% w/v non-fatty milk in PBST, 100 μl/well) for 40 minutes at 37° C., washed 4 times, and incubated with streptavidin conjugated HRP (1:10000 dilution in PBST, Jackson Immuno Research, Cat #016-030-084, 100 μl/well) for 40 minutes at 37° C. After a final wash, plates were incubated with 100 μl/well ELISA substrate TMB (Innoreagents, Cat #TMB-S-002) at room temperature. The reaction was stopped in 3-10 minutes at room temperature with 50 μl/well 1M H₂SO₄, and the absorbance of each well was read on a microplate reader using dual wavelength mode with 450 nm for TMB and 630 nm as the reference wavelength. The OD (450-630) values were plotted against antibody concentration. Data was analyzed using Graphpad Prism software and EC₅₀ values were reported.

Binder | EC50 [nM]
B4 | 0.107
B5 | 0.13
B6 | 0.303
B3 | 0.0891

Biological target: T3, cynomolgus TROP2-his protein
Assay: indirect ELISA, cynomolgus TROP2-his coated, OD(450-630)

Binder | EC50 [nM]
B1 | 0.611
B2 | 0.599
B3 | 0.837

Biological target: T2, human TROP2-his protein
Assay: SPR Biacore T200, mAb captured on anti-mouse IgG CM5 chip, TROP2-his analyte
Protocol: (§2) Un-reacted moieties on the chip (biosensor) surface were blocked with ethanolamine. […] The antigen-antibody association kinetics was followed for 2 minutes and the dissociation kinetics was followed for 10 minutes. The association and dissociation curves were fit to a 1:1 Langmuir binding model using BIAcore evaluation software.

Binder | Kd [nM] | koff [s⁻¹] | kon [M⁻¹ s⁻¹]
B4 | 0.00136 | 6.45e-07 | 476000
B5 | 0.154 | 8.09e-05 | 525000
B6 | 1.81 | 0.000961 | 531000
B3 | – | ~4.7e-05 | 373000

Biological target: T3, cynomolgus TROP2-his protein
Assay: as above
Protocol: as §2

Binder | Kd [nM] | koff [s⁻¹] | kon [M⁻¹ s⁻¹]
B4 | 0.00186 | 9.44e-07 | 508000
B5 | 0.0563 | 3.82e-05 | 678000
B6 | 1.12 | 0.000758 | 674000
B3 | – | ~4.54e-05 | 483000

Biological target: T1, full length human TROP2 on 293F-TROP2 …
Assay: FACS on 293F-TROP2 cells, MFI
Remark: another data set of the same source
Protocol: The binding activity of the mouse anti-TROP2 antibodies to cell surface TROP2 proteins was tested by flow cytometry (FACS), using Biosion in-house prepared 293F-TROP2 cells (clone ID #3A8) stably expressing full length human TROP2s (uniprot #P09758, SEQ ID NO.: 71) on cell membrane. The 293F-TROP2 cells were prepared by transfecting 293F cells (Thermofisher Inc., Cat #11625019) with a pCMV-T-P plasmid inserted with human TROP2 coding sequence between EcoRI and XbaI sites, following the instruction of lipofectamine 3000 transfection reagent (Thermo Fisher).
as §1

Binder | EC50 (read off the curve) [nM] | EC50 [nM]
B4 | ~1 | –
B2 | – | 0.83
B5 | – | 0.78
B6 | – | 0.773
B3 | – | 0.481

Biological target: T3, cynomolgus TROP2-his protein
Assay: indirect ELISA, cynomolgus TROP2-his coated, OD(450-630)
Remark: another data set of the same source

Binder | EC50 [nM]
B4 | 0.0849
B2 | 0.191
B3 | 0.177
